From publication PMC10636324 (Proceedings of the National Academy of Sciences of the …, 2023)

T1: FAM91A1^N (N terminus of FAM91A1, residues 1-328), wild type (UniProt Q658Y4 1-328)
T1 sequence (looked up): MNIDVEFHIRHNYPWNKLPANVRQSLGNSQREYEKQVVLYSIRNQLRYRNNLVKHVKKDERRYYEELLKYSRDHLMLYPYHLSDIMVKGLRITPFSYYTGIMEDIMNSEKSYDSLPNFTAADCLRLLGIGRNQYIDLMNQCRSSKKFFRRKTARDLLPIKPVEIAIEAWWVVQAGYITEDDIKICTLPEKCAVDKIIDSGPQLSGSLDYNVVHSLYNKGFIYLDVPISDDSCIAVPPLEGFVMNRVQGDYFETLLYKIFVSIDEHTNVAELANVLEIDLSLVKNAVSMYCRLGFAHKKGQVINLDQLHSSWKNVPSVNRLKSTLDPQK


Tests used:
[1] = target: T1, FAM91A1^N (N terminus of FAM91A1, …); test: ITC
[2] = target: T1, FAM91A1^N (N terminus of FAM91A1, …); test: pull-down

| binding result [2] | Binder | other results |
| --- | --- | --- |
| – | TPVDRHVSSSDRVGKPYRGVKPVFS (peptide, UniProt Q9NUY8-2 514-538, looked up) [TBC1D23^514-538 wild type] | Kd [1]: 1150 ± 160 nM |
| – | TPVDRHVSSSDRVGKPYHGVKPVFS (peptide, UniProt Q9NUY8-2 514-538, looked up) [TBC1D23^514-538 R531H] | affinity as percent of that of WT [1]: ~7.9% |
| – | TPVDRHVSSSDRVGKPYRGVKPVLS (peptide, UniProt Q9NUY8-2 514-538, looked up) [TBC1D23^514-538 F537L] | affinity as percent of that of WT [1]: ~16.4% |
| – | TPVDRHVSSSDRVGKPYCGVKPVFS (peptide, UniProt Q9NUY8-2 514-538, looked up) [TBC1D23^514-538 R531C] | affinity as percent of that of WT [1]: ~6.6% |
| binds | TPVDRHVSSSDRVGKPYRGVKPVLSIGDEEEYDTDEIDSSSMSDD (domain or fragment, human, UniProt Q9NUY8-2 514-558, looked up) [GST-TBC1D23^514-558 F537L] | – |
| binds | TPVDRHVSSSDRVGKAYRGVKPVFSIGDEEEYDTDEIDSSSMSDD (domain or fragment, human, UniProt Q9NUY8-2 514-558, looked up) [GST-TBC1D23^514-558 P529A] | – |
| binds | TPVDRHVSSSDRVGKPYRGVKPVFSIGDEEEYDTDEIDSSSMSDD (domain or fragment, human, UniProt Q9NUY8-2 514-558, looked up) [GST-TBC1D23^514-558 wild type] | – |
| binds | TPVDRHVSSSDRVGKPYHGVKPVFSIGDEEEYDTDEIDSSSMSDD (domain or fragment, human, UniProt Q9NUY8-2 514-558, looked up) [GST-TBC1D23^514-558 R531H] | – |
| binds | TPVDQHVSSSDRVGKPYRGVKPVFSIGDEEEYDTDEIDSSSMSDD (domain or fragment, human, UniProt Q9NUY8-2 514-558, looked up) [GST-TBC1D23^514-558 R518Q] | – |
| binds | APVDRHVSSSDRVGKPYRGVKPVFSIGDEEEYDTDEIDSSSMSDD (domain or fragment, human, UniProt Q9NUY8-2 514-558, looked up) [GST-TBC1D23^514-558 T514A] | – |
| binds | TPVDRHVSSSDRVGKPYCGVKPVFSIGDEEEYDTDEIDSSSMSDD (domain or fragment, human, UniProt Q9NUY8-2 514-558, looked up) [GST-TBC1D23^514-558 R531C] | – |
| binds | TPVDRHVSSSDRVGKPYRGIKPVFSIGDEEEYDTDEIDSSSMSDD (domain or fragment, human, UniProt Q9NUY8-2 514-558, looked up) [GST-TBC1D23^514-558 V533I] | – |
| binds | TPVDRHVSSSDRVGKPYRGVNPVFSIGDEEEYDTDEIDSSSMSDD (domain or fragment, human, UniProt Q9NUY8-2 514-558, looked up) [GST-TBC1D23^514-558 K534N] | – |
